Measured values from the supplement of paper PMC10724198.
± gives the standard deviation of the averaged measurements.

Test system: Saccharomyces cerevisiae
Experiment: protein stability index of tFT-peptide fusion (C-terminal peptide) (PSI (0-1 scale)); higher = more stable (slower turnover)
Conditions: genetic background: wild type; temperature: 30 C
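Further: PSI is a weighted mean of sequencing reads over stability bins, variants kept only with over 10 reads, mCherry proximal and sfGFP distal, peptide attached via GGGS linker.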

Row | Sequence | protein stability index
1 | PTLRAPLRYGYL | 0.675 ± 0.022
2 | PTPLSRPPTNAA | 0.634 ± 0.042
3 | PTPPPGLCTPRH | 0.702 ± 0.04
4 | PTPPSARAPPTT | 0.686 ± 0.032
5 | PTQVSGIVPAPR | 0.7732 ± 0.0051
6 | PTRIPRAPGPAQ | 0.694 ± 0.025
7 | PTRPPNEPTVHP | 0.659 ± 0.066
8 | PTRPSRPPRPPP | 0.598 ± 0.026
9 | PTRRPDGQLHPS | 0.6707 ± 0.0027
10 | PTRTAYHRQIPT | 0.773 ± 0.043
11 | PTRTSHLCLIPP | 0.67 ± 0.075
12 | PTSDSPSLALPC | 0.71 ± 0.023
13 | PTSPPPPPASPS | 0.836 ± 0.18
14 | PTTAPPIPLPSP | 0.72 ± 0.035
15 | PTTLCLSDRPQP | 0.721 ± 0.0081
16 | PTTNHLSNRHNI | 0.685 ± 0.085
17 | PTTRSAPPPCIA | 0.676 ± 0.03
18 | PTTTLYNPSPPN | 0.742 ± 0.043
19 | PVEGSTPPPGTT | 0.614 ± 0.032
20 | PVIGLSMEKARG | 0.739 ± 0.1
21 | PVLPFPSPPAAS | 0.682 ± 0.078
22 | PVLPPCLLPTPV | 0.509 ± 0.093
23 | PVLPRPNTQSRS | 0.694 ± 0.027
24 | PVLSRLHSEVFL | 0.73 ± 0.081
25 | PVPSPFMHRAAP | 0.702 ± 0.015
26 | PVPSRAQTRSRA | 0.65 ± 0.073

Row | Sequence | protein stability index
27 | PVPVLGPESSVH | 0.67 ± 0.023
28 | PVQNVGAEVRPA | 0.683 ± 0.0094
29 | PVSCTLTLPPPH | 0.65 ± 0.0036
30 | PVSSPPRPAPSP | 0.677 ± 0.025
31 | PVVDVRFSFRCL | 0.644 ± 0.038
32 | PVWLLHIRPPIP | 0.681 ± 0.058
33 | PVYAYYVPCAPR | 0.645 ± 0.091
34 | PWANRVCFLHMK | 0.678 ± 0.037
35 | PWEVEAKNGRDR | 0.717 ± 0.032
36 | PWGGVLGWGLVG | 0.608 ± 0.016
37 | PWGSPLMACRSC | 0.694 ± 0.02
38 | PWTAGQGWATIP | 0.688 ± 0.04
39 | PWTAHVWSMVLG | 0.552 ± 0.033
40 | PWWGCTLGGGWG | 0.737 ± 0.063
41 | PYEPTIALPLLL | 0.683 ± 0.058
42 | PYFFSPIFTRTP | 0.712 ± 0.027
43 | PYFHRRMSLESF | 0.703 ± 0.013
44 | PYGFNPSANGSS | 0.696 ± 0.068
45 | PYHLFLSFSLSR | 0.725 ± 0.011
46 | PYPPPPALPSSF | 0.667 ± 0.032
47 | PYRLPRSLLFFP | 0.6688 ± 0.0045
48 | PYSHFVFGLCEL | 0.75 ± 0.096
49 | PYTPPTSSRDRS | 0.661 ± 0.019
50 | QADAPPGDTNTL | 0.727 ± 0.041
51 | QCASPRLSLGSP | 0.703 ± 0.03
52 | QCCPPEQLSNCS | 0.681 ± 0.011

Row | Sequence | protein stability index
53 | QCGYGKLSGGSQ | 0.672 ± 0.034
54 | QCNYCVQNLSSR | 0.695 ± 0.019
55 | QDSTNTPHTCRS | 0.695 ± 0.06
56 | QEIRKEILLIKS | 0.6 ± 0.098
57 | QERRDQGRKGQD | 0.673 ± 0.011
58 | QESSDSRHATIR | 0.624 ± 0.044
59 | QFIGVGKVQRFG | 0.59 ± 0.014
60 | QFLGVGCLRGKR | 0.692 ± 0.037
61 | QFNVLPGQVGLV | 0.635 ± 0.027
62 | QFTLLEFVRSMG | 0.613 ± 0.032
63 | QGGGDREVRVSE | 0.653 ± 0.058
64 | QGKRRREDGIGG | 0.711 ± 0.072
65 | QGQAEREAERRS | 0.6732 ± 0.0059
66 | QGWDGSRRRPGL | 0.706 ± 0.031
67 | QGYWVKAVCASH | 0.624 ± 0.023
68 | QIKGNNLNIDKG | 0.6721 ± 0.0031
69 | QIQRLGGGGHCG | 0.762 ± 0.1
70 | QISLPDASLPPS | 0.67 ± 0.079
71 | QIYHIANPKILN | 0.696 ± 0.055
72 | QKDLDGSLANST | 0.692 ± 0.025
73 | QKHAAFLKRSRE | 0.68 ± 0.024
74 | QKIIEDNQNTGR | 0.663 ± 0.016
75 | QKKKKNNKRQKQ | 0.588 ± 0.023
76 | QKKKVKETRNER | 0.672 ± 0.034
77 | QKKNSPIPTNKN | 0.695 ± 0.04
78 | QKKSGKNGIRPK | 0.701 ± 0.065

Row | Sequence | protein stability index
79 | QKNKKRQTTYES | 0.662 ± 0.0069
80 | QKNWWLETVLRG | 0.72 ± 0.023
81 | QMKDGKTQKWQE | 0.569 ± 0.048
82 | QNKKEKRHKTKT | 0.648 ± 0.02
83 | QPGRGIAFVCFD | 0.735 ± 0.051
84 | QPHPPRAVLTGP | 0.6975 ± 0.005
85 | QPLTYHPLLRRP | 0.715 ± 0.051
86 | QPPSCTSRPPYR | 0.718 ± 0.096
87 | QPRLLGPDRIDL | 0.662 ± 0.036
88 | QPTPRPSPRPAC | 0.672 ± 0.025
89 | QQISQIFHKQGK | 0.851 ± 0.13
90 | QQTSGVQERICL | 0.744 ± 0.07
91 | QREGPEKRTHGR | 0.709 ± 0.038
92 | QRGGVGWILGGV | 0.675 ± 0.034
93 | QRGRGGRHVTDI | 0.71 ± 0.069
94 | QRKGNLTKTEPV | 0.676 ± 0.1
95 | QRKLTFIKRYRV | 0.67 ± 0.041
96 | QRTQRGKQPGQR | 0.679 ± 0.08
97 | QSHALSLRKGMP | 0.681 ± 0.052
98 | QSLPLSAPAPAC | 0.697 ± 0.037
99 | QSPTFLTPLALA | 0.653 ± 0.039
100 | QSTRPHSHGCLG | 0.748 ± 0.051
101 | QTGGPDPSGPPK | 0.693 ± 0.03
